Here are results for one molecule from patent US11795488B2, “Methods for enzymatic peptide ligation” (NANYANG TECHNOLOGICAL UNIVERSITY, priority 2016, dated 2023).

The subject of data set [1] is peptide substrate "GLPVSTKPVATRNGL" (SEQ ID NO: 18). In words: Peptide cyclization assay, kinetic analysis (HPLC/MS). The data set is classed as biochemical. How it is done:
(§1) Native and modified amino acids were purchased from Sigma-Aldrich (USA). All peptides used in this manuscript were synthesized in-house using the solid-phase method and HPLC purified. Cyclization assays were performed in 50-μl reaction mixtures containing 20 mM phosphate buffer, ligases (5 to 700 nM) and peptide substrates (10 to 300 μM). Each reaction was performed in triplicate at 37° C. and quenched by adding 5 μl of 1 M HCl solution. The peptides were separated by using a reversed-phase C18 analytical column (150×2.1 mm, Vydac) with a linear gradient from 10% to 50% acetonitrile over 15 min on a Nexera UHPLC system (Shimadzu). For kinetic analysis, the concentrations of WT OaAEP1, mutant OaAEP1, and butelase 1 were fixed at 700 nM, 50 nM, and 20 nM, respectively. The cyclization velocities were calculated by converting the HPLC-peak areas of remained linear precursors or the cyclized products into concentrations. The identity of each HPLC peak was analyzed by MALDI-TOF MS (ABI 4800 MALDI TOF/TOF). The velocities were input into GraphPad Prism (GraphPad Software, San Diego) to obtain the Michaelis-Menten curve and the kinetic parameters (kcat and Km). Comparison for the cyclization efficiency of various OaAEP1 mutants were performed in a volume of 20 μl of the reaction mixture and analyzed by MALDI-TOF MS after 10 mins or 1 hour ligation reaction.
The peptide cyclization activity of mature OaAEP1 was then analyzed using MS and the peptide substrate “[…]” (SEQ ID NO: 18) (FIG. 5A). The turn-over rate (kcat) for OaAEP1 is 0.052 s^−1, a value in good agreement with the previous report (Harris, K. S., et al., Nat Commun, 2015. 6: p. 10199). Likewise, the cyclization activity of butelase 1 extracted from plant was measured using the 15 residues peptide “[…]” (SEQ ID NO: 19) (FIG. 5A) leading to a kcat about 90 times faster than OaAEP1 b.

Data set [2] deals with ubiquitin with C-terminal Asn-Gly-Leu and peptide having N-terminal residues GlyLeu. In words: Ligation of ubiquitin with a peptide. The data set is classed as biochemical. The procedure:
(§2) (a) Fluorescence detection using 02 benzylcytosine-Alexa647 of the SNAP protein and SDS PAGE analysis with Comassie blue staining detection of the protein substrate and ligated products. The reaction is schematically depicted as inset. Cys247Ala ligates well folded protein well. […] (b) As little as 30 nM Cys247Ala catalyze ligation of 100 μM Ubiquitin and 500 μM biotin labelled peptide efficiently in 30 min, at room temperature, in pH 7.4 PBS buffer.
(§3) The ability of Cys247Ala to ligate ubiquitin with a peptide was first tested. The three residues“Asn-Gly-Leu” were added to the C-terminus of ubiquitin to make it recognizable by Cys247Ala. Another peptide having N-terminal residues GlyLeu was used as the add-on component. At a protein: peptide molar ratio of 1:5, Cys247Ala catalyzed the ligation of more than 90% ubiquitin with the peptide within 10 min (FIG. 6). An amount of 30 nM of Cys247Ala was enough for the reaction compared to 10-30 μM of sortase A typically required to perform productive ligations. […] Ubiquitin having the same “Asn-Gly-Leu” modification at its C-terminal end and a N-terminal modified SNAP (NEB) tag protein were used as substrates. […] Protein ligation can be performed within minutes at neutral pH and at room temperature.

The test system of data set [3] is ubiquitin and SNAP tag protein. In words: Ligation of two well-folded proteins. The data set is classed as biochemical. How it is done: as §2, §3
In another data set the test system is peptide substrate. The data set can be described thus: Comparison of cyclization efficiency of gate-keeper Cys247 mutants (MALDI-TOF MS). It is filed as biochemical. The procedure:
as §1
The pre-ligation conformation of OaAEP1 captured in the present structure was then analyzed to identify several key features that could differentiate an AEP protease from an AEP-like ligase. […] In contrast to AEP proteases, the surface of OaAEP1 facing the catalytic Cys217 appears to be more widely open. Three cysteine residues (Cys247, Cys250, Cys264) are aligned along a shallow cleft at the surface of the enzyme (FIGS. 3C and 3E). Unlike the surface of AEP proteases that contains several bulges, both butelase 1 (using a homology model based on OaAEP1b) and OaAEP1 have residues with smaller side-chains along this patch. A disulfide bond is formed between Cys250 and Cys264, which are conserved in AEP-like ligases butelase 1 and OaAEP1b. This covalent bond is likely to stabilize the local structure and provide an adequate surface allowing the approach of an N-terminal amine incoming group. Conversely, the corresponding surface patch of AEP proteases (PDB: 4AWA) is lined with residues having bulky side-chains like Tyr (FIG. 3E) blocking this channel. It was therefore hypothesized that residue Cys247 which is located at the extremity of the substrate channel is likely to function as a final nucleophile filter (or “gate-keeper”), allowing attack from the N-terminal amine to complete the ligation reaction. […]

The next data set relates to HEK293T. In words: Cell surface labeling with fluorescently tagged SNAP protein. The data set is classed as cell-based, human. The conditions noted are these: 10 μM SNAP-NGL, 0.1 μM Quicklase, 30 minutes˜1 hour. How it is done:
(§4) (b) Fluorecently tagged SNAP (New England Biolabs) protein was conjugated to the intrinsic cellular surface proteins of two different cell lines, RAW cell ([…]) and HEK293T (human epithelial cell line). 10 μM modified SNAP protein (with additional C-terminal NGL residues, lane 1 sample) with or without (lane 2 and lane 5 samples) coincubation of 0.1 μM Quicklase were added to cell culture, pre-washed with PBS buffer. After 30 minutes˜1 hour incubation, cells were rinsed with additional PBS buffer (lane 3 and lane 6 were first wash samples), two times. The remaining cell was harvested and lysed with SDS loading buffer (lane 4 and 7 samples). All samples were examined using SDS-PAGE, and only the covalently fluorescently tagged SNAP protein carried the signal on the gel, which were shown as dark bands in (b). […] (c) Surface modified RAW cells were examined using a fluorescent microscope, bright spots on the cellular surface indicated successful surface labelling of intrinsic cellular membrane.
(§5) 0.1 to 1 μM of OaAEP1 Cys247Ala was added to cellular culture in standard cell culture conditions. 1-20 μM labeling protein tags were added to the reaction afterwards, and incubated for 30-45 mins at 37° C. and standard culturing condition, before both excess enzymes and labelling tags were washed away. […]

A further data set has as its system RAW cell. The data set is described as above. It is filed as cell-based, human. The conditions noted are these: 10 μM SNAP-NGL, 0.1 μM Quicklase, 30 minutes˜1 hour. How it is done:
as §4, §5

B1: Cys247Ala: OaAEP1 Cys247Ala (Quicklase), Asx-specific peptide ligase having the amino acid sequence of SEQ ID NO:1 (protein, listed as Ovaloparmena affinis)
chain: MVRYLAGAVLLLVVLSVAAAVSGARDGDYLHLPSEVSRFFRPQETNDDHGEDSVGTRWAVLIAGSKGYANYRHQAGVCHAYQILKRGGLKDENIVVFMYDDIAYNESNPRPGVIINSPHGSDVYAGVPKDYTGEEVNAKNFLAAILGNKSAITGGSGKVVDSGPNDHIFIYYTDHGAAGVIGMPSKPYLYADELNDALKKKHASGTYKSLVFYLEACESGSMFEGILPEDLNIYALTSTNTTESSWAYYCPAQENPPPPEYNVCLGDLFSVAWLEDSDVQNSWYETLNQQYHHVDKRISHASHATQYGNLKLGEEGLFVYMGSNPANDNYTSLDGNALTPSSIVVNQRDADLLHLWEKFRKAPEGSARKEEAQTQIFKAMSHRVHIDSSIKLIGKLLFGIEKCTEILNAVRPAGQPLVDDWACLRSLVGTFETHCGSLSEYGMRHTRTIANICNAGISEEQMAEAASQACASIP
With B1, the “kcat relative to WT OaAEP1b” value in data set [1] is given as “approximately 160 times”. Further, in data set [1], the “peptide ligase catalytic activity relative to wild type OaAEP1” value is recorded as about 160 times. Further, the “enzyme concentration that catalyzes ligation efficiently” value in data set [2] (100 μM Ubiquitin, 500 μM biotin labelled peptide, 30 min, room temperature, pH 7.4 PBS) stood at 30 nM. Besides, the “ubiquitin ligated with the peptide” value in data set [2] (protein: peptide molar ratio 1:5, within 10 min) is given as “more than 90%”. Also, in data set [2] (ubiquitin-peptide ligation), the “amount of enzyme enough for the reaction” value was 30 nM. The “protein ligation activity (control ligation experiments)” value in data set [3] was “protein ligation activity could only be observed in the presence of the Cys247Ala protein”. Further, the “individual substrate proteins ligated into a single polypeptide product” value in data set [3] (5 μM SNAP tag protein, 8 μM ubiquitin, 100 nM enzyme) is recorded as “more than 60%”. Further, the “ligation of SNAP tag protein with Ubiquitin” value in data set [3] (5 μM SNAP tag, 100 nM Cys247Ala, 4000 nM wild type OaAEP1b) is listed as “efficiently ligated”. Also, the “alternative reaction when N-terminal amine is not available” value in the data set on peptide substrate (N-terminal amine group acetylated) is given as “side chain ligation is more preferred”. The “ligase activity compared to WT OaAEP1” value with peptide substrate (gate-keeper position 247 mutants) is listed as “significantly improved enzymatic properties”. Also, the “conjugation of SNAP protein to intrinsic cellular surface proteins” value in the data set with HEK293T was “significant amount of intrinsic proteins in RAW and HEK283T cells were conjugated with SNAP protein”; with RAW cell, “significant amount of intrinsic proteins in RAW and HEK283T cells were conjugated with SNAP protein”.
